# Assay results reported in patent US20200392228A1 (PANDION OPERATIONS, published 2020).
# Positions count from the first letter of the chain named.
# T1: human MAdCAM expressed on cells (human, UniProt Q13477 19-382)
# T1 construct: whole, on cells; also called MADCAM1
# T1 sequence (looked up): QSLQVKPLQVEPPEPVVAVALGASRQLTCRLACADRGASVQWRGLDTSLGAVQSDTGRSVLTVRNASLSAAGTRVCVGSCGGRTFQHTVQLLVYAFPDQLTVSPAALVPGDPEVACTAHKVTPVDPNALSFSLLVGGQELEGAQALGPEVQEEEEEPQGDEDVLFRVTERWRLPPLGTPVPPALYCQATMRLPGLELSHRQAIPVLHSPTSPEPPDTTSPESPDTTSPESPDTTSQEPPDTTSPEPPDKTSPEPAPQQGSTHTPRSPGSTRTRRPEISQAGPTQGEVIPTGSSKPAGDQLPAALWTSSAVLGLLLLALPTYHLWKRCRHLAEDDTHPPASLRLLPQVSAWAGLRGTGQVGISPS
# T2: mouse MAdCAM expressed on cells (mouse, UniProt Q61826 22-405)
# T2 construct: whole, on cells
# T2 sequence (looked up): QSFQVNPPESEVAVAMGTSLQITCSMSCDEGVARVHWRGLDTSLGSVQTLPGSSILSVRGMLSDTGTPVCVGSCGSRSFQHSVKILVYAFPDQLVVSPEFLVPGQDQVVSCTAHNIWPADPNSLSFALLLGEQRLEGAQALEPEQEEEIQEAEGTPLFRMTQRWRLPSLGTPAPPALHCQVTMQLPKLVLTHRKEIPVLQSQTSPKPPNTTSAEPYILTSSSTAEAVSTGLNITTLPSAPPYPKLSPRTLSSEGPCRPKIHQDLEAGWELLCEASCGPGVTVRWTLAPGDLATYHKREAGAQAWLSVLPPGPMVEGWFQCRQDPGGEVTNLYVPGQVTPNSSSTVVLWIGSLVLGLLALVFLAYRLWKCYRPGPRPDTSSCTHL
# B1: MAdCAM antibody Clone ID 33 of Table 6 (scFv) (scFv)
# scFv: QVQLVQSGAEVKKPGASVKVSCKASGYTFTSYGISWVRQAPGQGLEWMGWMHPKSGDTGLTQKFQGRVTMTRDTSTSTVYMELSSLRSEDTAVYYCARDTPYYYYGMDVWGQGTTVTVSSGGGGSGGGGSGGGGSGGGGSDIQMTQSPSSLSASVGDRVTITCRASQSISSWLAWYQQKPGKAPKLLIYAASSLQSGVPSRFSGSGSGTDFTLTISSLQPEDFATYYCQQSYSVPITFGQGTKVEIK
# B2: MAdCAM antibody Clone ID 39 of Table 6 (scFv) (scFv)
# scFv: QVQLVQSGAEVKKPGASVKVSCKASGYTFTSYYMHWVRQAPGQGLEWMGWMNPNSGNTGYAQKFQGRVTMTRDTSTSTVYMELSSLRSEDTAVYYCARDLGYYDSSGYFGAFDIWGQGTTVTVSSGGGGSGGGGSGGGGSGGGGSDIQMTQSPSSLSASVGDRVTITCQSSEDISSSLNWYQQKPGKAPKLLIYAASSLQIGVPSRFSGSGSGTDFTLTISSLQPEDFATYYCQQTYSTPYTFGQGTKVEIK
# B3: MAdCAM antibody Clone ID 32 of Table 6 (scFv) (scFv)
# scFv: QVQLVQSGAEVKKPGASVKVSCKASGYTLTDYYMHWVRQAPGQGLEWMGIINPSGGSTSYAQKFQGRVTMTRDTSTSTVYMELSSLRSEDTAVYYCAREEYSSSSGYFDYWGQGTLVTVSSGGGGSGGGGSGGGGSGGGGSDIQMTQSPSSLSASVGDRVTITCRASQGISSWLAWYQQKPGKAPKLLIYAASSLQSGVPSRFSGSGSGTDFTLTISSLQPEDFATYYCQQSYSTPLTFGQGTKVEIK
# B4: MAdCAM antibody Clone ID 37 of Table 6 (scFv) (scFv)
# scFv: QVQLVQSGAEVKKPGASVKVSCKASGYTFSKHFVHWVRQAPGQGLEWMGWMNPNSGNSGYAQKFQGRVTMTRDTSTSTVYMELSSLRSEDTAVYYCARGEGGYYYYGMDVWGQGTLVTVSSGGGGSGGGGSGGGGSGGGGSDIQMTQSPSSLSASVGDRVTITCRASQSISSWLAWYQQKPGKAPKLLIYAASTLQSGVPSRFSGSGSGTDFTLTISSLQPEDFATYYCQQSYSTPWTFGQGTKVEIK
# B5: MAdCAM antibody Clone ID 38 of Table 6 (scFv) (scFv)
# scFv: EVQLLESGGGLVQPGGSLRLSCAASGFTFGSYSMSWVRQAPGKGLEWVSAIGTGGGTYYADSVKGRFTISRDNSKNTLYLQMNSLRAEDTAVYYCAKGTPYYYYYGMDVWGQGTMVTVSSGGGGSGGGGSGGGGSGGGGSDIQMTQSPSSLSASVGDRVTITCRASQPLSNWLAWYQQKPGKAPKLLIYAASSLQSGVPSRFSGSGSGTDFTLTISSLQPEDFATYYCQQAISFPLTFGGGTKVEIK
# B6: MAdCAM antibody Clone ID 31 of Table 6 (scFv) (scFv)
# scFv: QVQLVQSGAEVKKPGASVKVSCKASGYTFTSYYMHWVRQAPGQGLEWMGIINPSGGSTSYAQKFQGRVTMTRDTSTSTVYMELSSLRSEDTAVYYCARDTGYSYGRYYYYGMDVWGQGTLVTVSSGGGGSGGGGSGGGGSGGGGSDIQMTQSPSSLSASVGDRVTITCRASQSIGRWLAWYQQKPGKAPKLLIYDASNLQSGVPSRFSGSGSGTDFTLTISSLQPEDFATYYCQQSYSIPITFGQGTKVEIK
# B7: MAdCAM antibody Clone ID 36 of Table 6 (scFv) (scFv)
# scFv: B6 scFv with S31G, Y32H, L120T, Q245G
# B8: MAdCAM antibody Clone ID 35 of Table 6 (scFv) (scFv)
# scFv: EVQLLESGGGLVQPGGSLRLSCAASGFSFSSYTMNWVRQAPGKGLEWVSFITSSSRTIYYADSVKGRFTISRDNSKNTLYLQMNSLRAEDTAVYYCARDRRGDYGDSWYFDLWGRGTLVTVSSGGGGSGGGGSGGGGSGGGGSEIVMTQSPATLSVSPGERATLSCRASQSVRNYLAWYQQKPGQAPRLLIYGASTRATGIPARFSGSGSGTEFTLTISSLQSEDFAVYYCQQYGSSPLTFGGGTKVEIK
# B9: MAdCAM antibody Clone ID 19 of Table 7 (IgG) (antibody, V domains shown)
# VH: EVQLLESGGGLVQPGGSLRLSCAASGFTFEDYAMHWVRQAPGKGLEWVSYLNSDGGSTSYADSVKGRFTISRDNSKNTLYLQMNSLRAEDTAVYYCAKDYCTNGVCAFDYWGQGTLVTVSS
# VL: DIQMTQSPSSLSASVGDRVTITCRASQSISTYLNWYQQKPGKAPKLLIYDASNLETGVPSRFSGSGSGTDFTLTISSLQPEDFATYYCQQSYTIPITFGQGTRLEIK
# notes: IgG format
# B10: MAdCAM antibody Clone ID 34 of Table 7 (IgG) (antibody, V domains shown)
# VH: QVQLVQSGAEVKKPGASVKVSCKASGYTFTGYYIHWVRQAPGQGLEWMGWMNPNSGNTGYAQKFQGRVTMTRDTSTSTVYMELSSLRSEDTAVYYCARDPGFLGYCSGGSCYDGWFDPWGQGTLVTVSS
# VL: B9 VL with T31S, N34H, D50A, N53S, E55Q, T56S, I94A, I96Y, R103K
# notes: IgG format
# B11: MAdCAM antibody Clone ID 15 of Table 7 (IgG) (antibody, V domains shown)
# VH: QVQLVQSGAEVKKPGASVKVSCKASGYTFTGYYMHWVRQAPGQGLEWMGWIGPNSGDTNYAQKFQGRVTMTRDTSTSTVYMELSSLRSEDTAVYYCARDLDHNWYFDLWGRGTLVTVSS
# VL: DIVMTQSPLSLPVTPGEPASISCRSSQSLLHSNGYNYLDWYLQKPGQSPQLLIYSSSNRAPGVPDRFSGSGSGTDFTLKISRVEAEDVGVYYCMQALHIPLTFGGGTKVEIK
# notes: IgG format
# B12: MAdCAM antibody Clone ID 21 of Table 7 (IgG) (antibody, V domains shown)
# VH: EVQLVESGGGLVKPGGSLRLSCAASGFTFSSYWMSWVRQAPGKGLEWVSYISGDSGYTNYAAPVKGRFTISRDDSKNTLYLQMNSLKTEDTAVYYCARANSSGWYDWYFDLWGRGTLVTVSS
# VL: not shown
# notes: IgG format
# B13: MAdCAM antibody Clone ID 13 of Table 7 (IgG) (antibody, V domains shown)
# VH: QVQLVQSGAEVKKPGASVKVSCKASGYTFTTYYMHWVRQAPGQGLEWMGGFDPEDGETIYAQKFQGRVTMTRDTSTSTVYMELSSLRSEDTAVYYCARHAVAGAVGAGYYYYGMDVWGQGTMVTVSS
# VL: DIQMTQSPSSLSASVGDRVTITCRASESISNWLAWYQQKPGKAPKLLIYAASTLQSGVPSRFSGSGSGTDFTLTISSLQPEDFATYYCQQSYSVPFTFGPGTKVDIK
# notes: IgG format
# B14: MAdCAM antibody Clone ID 1 of Table 7 (IgG) (antibody, V domains shown)
# VH: EVQLLESGGGLVQPGGSLRLSCAASGFTFSSYGMHWVRQAPGKGLEWVAVISDDGSDKYYADSVKGRFTISRDNSKNTLYLQMNSLRAEDTAVYYCTTSKYYYYYGMDVWGQGTTVTVSS
# VL: DIQMTQSPSSLSASVGDRVTITCQASQDISKSLNWYQQKPGKAPKLLIYAASSLQSGVPSRFSGSGSGTDFTLTISSLQPEDFATYYCQQGYSTPLTFGGGTKVEIK
# notes: IgG format
# B15: MAdCAM antibody Clone ID 25 of Table 7 (IgG) (antibody, V domains shown)
# VH: EVQLLESGGGLVQPGGSLRLSCAASGFTFSNAWMSWVRQAPGKGLEWVSTIVGNGGATYYADSVKGRFTISRDNSKNTLYLQMNSLRAEDTAVYYCARDNPLRWQGMDVWGQGTLVTVSS
# VL: B13 VL with E27Q, S28D, W32Y, A34N, T53S, V94I, F96P
# notes: IgG format
# B16: MAdCAM antibody Clone ID 37 of Table 7 (IgG) (antibody, V domains shown)
# VH: EVQLLESGGGLVQPGGSLRLSCAASGFTFSDYGMPWVRQAPGKGLEWVSAISGSGGSTYYADSVKGRFTISRDNSKNTLYLQMNSLRAEDTAVYYCARDGGWQPAAILDYWGQGTLVTVSS
# VL: B9 VL with S28G, T31N, Y32N, T93S, I94T, I96L, R103K, L104V
# notes: IgG format
# B17: MAdCAM antibody Clone ID 16 of Table 7 (IgG) (antibody, V domains shown)
# VH: EVQLLESGGGLVQPGGSLRLSCAASGFTFDDYAMHWVRQAPGKGLEWVSYIDASGTTIYYADSVKGRFTISRDNSKNTLYLQMNSLRAEDTAVYYCAKDQAAAGYWYFDLWGRGTLVTVSS
# VL: B9 VL with R24Q, S28D, T31N, D50K, N53T, T56S, T93S, I94T
# notes: IgG format
# B18: MAdCAM antibody Clone ID 59 of Table 7 (IgG) (antibody, V domains shown)
# VH: B16 VH with T28S, P35H
# VL: B14 VL with Q24R, D28G, K31N, S32N, A50D, S53N, Q55E, S56T, G91S
# notes: IgG format
# B19: MAdCAM antibody Clone ID 18 of Table 7 (IgG) (antibody, V domains shown)
# VH: QVQLVQSGAEVKKPGSSVKVSCKASGYTFTNYYMHWVRQAPGQGLEWMGGIIPIVDRVKYAQKFQGRVTITADESTSTAYMELSSLRSEDTAVYYCAKGRYTVNYYYGMDVWGQGTTVTVSS
# VL: DIQMTQSPSSLSASVGDRVTITCQANQDISNYLNWYQQKPGKAPKLLIYRASKLEAGVPSRFSGSGSGTDFTLTISSLQPEDFATYYCQQSSEIPYSFGQGTKLEIK
# notes: IgG format
# Molecular target: T1, human MAdCAM expressed on cells
# Assay: cell binding
row,Binder,binding result
1,B1,binds
2,B2,binds
3,B3,binds
4,B4,binds
5,B5,binds
6,B6,binds
7,B7,binds
8,B8,binds

# Molecular target: T2, mouse MAdCAM expressed on cells
# Assay: cell binding
row,Binder,binding result
1,B1,no binding
2,B2,no binding
3,B3,no binding
4,B4,no binding
5,B5,no binding
6,B6,no binding
7,B7,no binding
8,B8,no binding

# Molecular target: T1, human MAdCAM expressed on cells
# Assay: cell binding
# Remark: another data set of the same source
row,Binder,binding result
1,B9,binds
2,B10,binds
3,B11,binds
4,B12,binds
5,B13,binds
6,B14,binds
7,B15,binds
8,B16,binds
9,B17,binds
10,B18,binds
11,B19,binds

# Molecular target: T2, mouse MAdCAM expressed on cells
# Assay: cell binding
# Remark: another data set of the same source
row,Binder,binding result
1,B9,no binding
2,B10,no binding
3,B11,no binding
4,B12,no binding
5,B13,no binding
6,B14,binds
7,B15,no binding
8,B16,no binding
9,B17,no binding
10,B18,no binding
11,B19,no binding
